The text below walks through data of patent publication US20160102129A1 (Novo Nordisk, published 2016).

Assay [1] addresses T1, human glucagon receptor (human, UniProt P47871 26-477). The assay can be described thus: cell-based or functional assay.
Assay [2] addresses T2, human GLP-1 receptor (human, UniProt P43220 24-463). Kind of assay: cell-based or functional assay.
Assay [3] has as its target T2, human GLP-1 receptor. The assay can be described thus: SPA displacement of [125I]GLP-1(7-36)NH2 from hGLP-1R BHK membranes. The protocol:
The GLP-1 receptor binding of each derivatives were determined with competitive binding, displacing [¹²⁵I]GLP-1 bound to GLP-1 receptors expressed in cell membranes associated with wheat germ agglutinin (WGA) scintillation proximity assay (SPA) beads. Each derivative was added in a series of concentrations to isolated membranes comprising the human GLP-1 receptor and displacement of the labelled radioligand was monitored. The receptor binding was reported as the concentration at which half of the labelled ligand is displaced from the receptor, the IC⁵⁰ value.
1. For the receptor binding assay 50 μl of the assay buffer was added to each well of an assay plate. [0588] 2. Test compounds were serially diluted to give the following concentrations: 8×10EE-7 M, 8×10EE-8 M, 8×10EE-9 M, 8×10EE-10 M, 8×10EE-11 M, 8×10EE-12 M and 8×10EE-13 M. Twenty-five μl were added to appropriate wells in the assay plate. [0589] 3. Cell membrane aliquots were thawed and diluted to their working concentration. Fifty μl were added to each well in the assay plate. [0590] 4. WGA SPA beads were suspended in assay buffer at 20 mg/ml. The suspension was diluted to 10 mg/ml in assay buffer just prior to addition to the assay plate. Fifty μl were added to each well in the assay plate. [0591] 5. […] A 25 μl aliquot was reserved for measuring total counts/well. [0592] 6. The assay plate was incubated for 2 h at 30° C. [0593] 7. The assay plate was centrifuged for 10 min. [0594] 8. The assay plate was read in a Perkin Elmer TopCount NXT instrument.
For orientation: Loss of bound radioactivity is the signal in a displacement assay; it reports binding, not function.

For assay [4], the target named is T1, human glucagon receptor. The assay can be described thus: SPA displacement of [125I]-glucagon from human glucagon receptor BHK membranes. How it is done:
1. For the receptor binding assay 50 μl of the assay buffer was added to each well of an assay plate. [0603] 2. Test compounds were serially diluted to give the following concentrations: 8×10EE-7 M, 8×10EE-8 M, 8×10EE-9 M, 8×10EE-10 M, 8×10EE-11 M, 8×10EE-12 M and 8×10EE-13 M. Twenty-five μl were added to appropriate wells in the assay plate. [0604] 3. Cell membrane aliquots were thawed and diluted to their working concentration. Fifty μl were added to each well in the assay plate. [0605] 4. WGA SPA beads were suspended in assay buffer at 20 mg/ml. The suspension was diluted to 10 mg/ml in assay buffer just prior to addition to the assay plate. Fifty μl were added to each well in the assay plate. [0606] 5. […] A 25 μl aliquot was reserved for measuring total counts/well. […] 6. The assay plate was incubated for 2 h at 25° C. [0608] 7. The assay plate was centrifuged for 10 min at 1500 rpm. [0609] 8. The assay plate was read in a Perkin Elmer TopCount NXT instrument.

*1 amine or outer side, *2 acyl side, *3 side chain or, on linkers, in order; H or OH if unused. Where no end group is shown, it is not given here. Side-chain parts run from the residue outwards. [ ]: non-standard residue; d: D form. The star is where a group is joined. C20 diacid = O=C(O)CCCCCCCCCCCCCCCCCCC(=O)*; C18 diacid = O=C(O)CCCCCCCCCCCCCCCCC(=O)*; C16 diacid = O=C(O)CCCCCCCCCCCCCCC(=O)*; γGlu = O=C(O)[C@H](CCC(=O)[*:2])N[*:1]; C14 diacid = O=C(O)CCCCCCCCCCCCC(=O)*; Desaminohistidyl = O=C(CCc1c[nH]cn1)*; AEEA = NCCOCCOCC(=O)O; Aib = CC(C)(N)C(=O)O

T1 sequence (P47871 26-477): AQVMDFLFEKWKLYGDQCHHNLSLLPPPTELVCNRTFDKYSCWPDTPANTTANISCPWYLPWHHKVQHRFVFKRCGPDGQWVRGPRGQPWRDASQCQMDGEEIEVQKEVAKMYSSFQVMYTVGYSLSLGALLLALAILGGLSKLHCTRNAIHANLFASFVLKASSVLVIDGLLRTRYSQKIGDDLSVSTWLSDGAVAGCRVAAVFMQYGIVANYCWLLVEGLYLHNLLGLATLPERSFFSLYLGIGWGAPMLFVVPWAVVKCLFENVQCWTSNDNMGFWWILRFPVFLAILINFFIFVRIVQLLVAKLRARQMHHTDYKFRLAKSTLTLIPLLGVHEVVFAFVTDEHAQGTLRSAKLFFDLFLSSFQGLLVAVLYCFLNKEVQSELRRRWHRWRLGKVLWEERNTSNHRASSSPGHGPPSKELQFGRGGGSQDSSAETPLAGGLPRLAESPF

Consider [Desaminohistidyl][Aib]HGTFTSDVSKYLEEQAAREFIAWLLK([Ado-Ado-γGlu-γGlu-C16 diacid])T-NH2, for which the “EC50 GlucagonR [pM], CRE luciferase reporter gene assay” value (shortened to “EC50 GlucagonR [pM]”) in the assay with human glucagon receptor [1] turned out to be 46.1 pM. Further, in the assay with human GLP-1 receptor [2], the “EC50 GLP-1R [pM], CRE luciferase reporter gene assay” value (shortened to “EC50 GLP-1R [pM]”) stood at 60.7 pM. For the same molecule, the IC50 in the assay with human GLP-1 receptor [3] worked out at 1.3 nM; with human glucagon receptor [4] it was 4 nM.
As for [Desaminohistidyl][Aib]HGTFTSDVSKYLEEQAAREFIAWLLK([Ado-Ado-γGlu-γGlu-C20 diacid])T-NH2, the “EC50 GlucagonR [pM]” value with human glucagon receptor [1] amounted to 917 pM. For the same molecule, the “EC50 GLP-1R [pM]” value in the assay with human GLP-1 receptor [2] was 62.9 pM. The IC50 was found to be 0.4 nM with human GLP-1 receptor [3] and 10.1 nM with human glucagon receptor [4].
As to [Desaminohistidyl][Aib]HGTFTSDVSKYLEEQAAREFIAWLLK([Gly-Ser-Glu-Gly-Ser-γGlu-γGlu-C20 diacid])T-NH2, the “EC50 GlucagonR [pM]” value with human glucagon receptor [1] came to 111 pM. For the same molecule, the “EC50 GLP-1R [pM]” value with human GLP-1 receptor [2] worked out at 5 pM. Moreover, the IC50 came to 0.4 nM with human GLP-1 receptor [3] and 6 nM in the assay with human glucagon receptor [4].
The like results for [Desaminohistidyl][Aib]HGTFTSDVSKYLEEQAAREFIAWLLK([Ado-Ado-γGlu-γGlu-C14 diacid])T-NH2 were, in that order, 52.6 pM, 12 pM, 1.5 nM and 3.7 nM.

B1: N^ε34-[(4S)-4-carboxy-4-[[2-[2-[2-[[2-[2-[2-[[(4S)-4-carboxy-4-[[(4S)-4-carboxy-4-(17-carboxyheptadecanoylamino)butanoyl]amino]butanoyl]amino]ethoxy]ethoxy]acet … (peptide)
peptide: [Desaminohistidyl][Aib]HGTFTSDVSKYLEARAAREFIAWLLKGGG
modifications: not fully specified (residue 28); printed as Nε34-[(4S)-4-carboxy-4-[[2-[2-[2-[[2-[2-[2-[[(4S)-4-carboxy-4-[[(4S)-4-carboxy-4-(17-carboxyheptadecanoylamino)butanoyl]amino]butanoyl]amino]ethoxy]ethoxy]acetyl]amino]ethoxy]ethoxy]acetyl]amino]butanoyl]-[Imp7,Aib8,His9,Lys18,Ala22,Arg23,Arg26,Leu33,Gly36]-GLP-1-(7-37)-peptide
As for B1, the “EC50 GlucagonR [pM]” value in the assay with human glucagon receptor [1] was 39.4 pM. For the same molecule, in the assay with human GLP-1 receptor [2], the “EC50 GLP-1R [pM]” value came out at 2.2 pM. Moreover, the half-inhibitory concentration (IC50) in the assay with human GLP-1 receptor [3] was 0.3 nM; with human glucagon receptor [4], 3.7 nM.
In the case of [Desaminohistidyl][Aib]HGTFTSDVSRYLEGRAAREFIAWLLK([γGlu-γGlu-AEEA-γGlu-γGlu-C18 diacid])GSG, the “EC50 GlucagonR [pM]” value in the assay with human glucagon receptor [1] came out at 158 pM. In addition, the “EC50 GLP-1R [pM]” value in the assay with human GLP-1 receptor [2] worked out at 6 pM. The concentration for half-maximal inhibition (IC50) with human GLP-1 receptor [3] came to 1.7 nM; with human glucagon receptor [4], 11.4 nM.
The matching figures for [Desaminohistidyl][Aib]HGTFTSDVSRYLEGRAAREFIAWLLK([γGlu-γGlu-AEEA-γGlu-γGlu-C18 diacid])GAG: 248 pM, 3 pM, 1 nM and 18.8 nM.
The like results for [Desaminohistidyl]GHGTFTSDVSRYLEEQAAREFIAWLLK([Gly-Ser-Glu-Gly-Ser-γGlu-γGlu-C18 diacid])T-NH2 were, in that order, 459 pM, 8 pM, 3.2 nM and 9.6 nM.

What is called IC50 is the concentration needed to halve the response being measured. Higher therefore signals weaker potency in that assay.
